Assay results from publication PMC9576616, “Synthesis, preclinical evaluation and radiation dosimetry of a dual targeting PET tracer [^68Ga]Ga-FAPI-RGD” (Theranostics, 2022).
Like-named read-outs stand apart in the source and are kept apart here.

How the values were obtained:
in vivo = experiment: in vivo; set-up: species or system C57BL/6 mice; details: C57BL/6, mouse, iv, 740 kBq, total radioactivity
Protocol: All animal studies were approved by the Animal Care and Use Committee of Xiamen University and carried out in compliance with the national laws related to the conduct of animal experiments. […] Tissue and organs of interest were collected, wet weighted and activity measured by a γ-counter. […] The results were calculated as percentage of injected dose per gram (%ID/g).

[1] = MicroPET imaging in Panc02 tumor-bearing mice; set-up: species or system C57BL/6 mice; details: C57BL/6, mouse, in vivo, iv, 7.4 MBq, total radioactivity; for tissue uptake at 0.5 h: 0.5 h p.i.; for tissue uptake at 1 h: 1 h p.i.; for tissue uptake at 2 h: 2 h p.i.; for tissue uptake at 4 h: 4 h p.i.
Protocol: All animal studies were approved by the Animal Care and Use Committee of Xiamen University and carried out in compliance with the national laws related to the conduct of animal experiments. Panc02 tumor model was generated by subcutaneous injection of 5 × 10^6 tumor cells suspended in 100 μL PBS, into the upper limb flank of C57BL/6 mice (Beijing Vital River Laboratory Animal Technology Co., Ltd.). The tumor mice were subjected to microPET and biodistributions studies when the tumor volume reached 200-300 mm^3.
PET scans were performed by using Inveon small-animal PET scanner (Siemens Preclinical Solution). About 7.4 MBq of [^68Ga]Ga-FAPI-RGD was given to Panc02 tumor xenografted mice through tail vein injection for the 10-min static PET imaging. At 0.5, 1, 2 and 4 h post-injection (p.i.), mice were anaesthetized and placed on imaging chamber of PET/CT scanner for image acquisition. […] The blocking study was performed by injecting unlabeled c(RGDfK), FAPI-02, or RGDfK+FAPI-02, before administering [^68Ga]Ga-FAPI-RGD. PET images were reconstructed using three-dimensional ordered-subset expectation-maximization (3D OSEM) algorithm and with a Maximum a Posteriori (MAP) method and analyzed through drawing regions of interest (ROIs).

Panc02 tumor cells = experiment: Cellular uptake assay on Panc02 tumor cells; type: cell-based; details: 37 kBq, 37 °C, 10, 30, 60, 90 and 120 min, n = 4
Protocol: Panc02 cell line was purchased from the American Type Culture Collection (ATCC), and cultured in Dulbecco modified Eagle medium (DMEM) containing 10% (v/v) fetal bovine serum (FBS) at 37 °C with 5% CO2. Panc02 cells were seeded in 24-well plates with 2 × 10^5 cells per well. […] Then, the medium was removed and the cells were washed twice with cold PBS (pH 7.4) and subsequently lysed with 0.5 mL of NaOH (1 M). In the blocking studies, excess amount of unlabeled FAPI-RGD, FAPI-02, RGDfK, FAPI-02+RGDfK (10 μg/well) were added as inhibitors into the cells along with [^68Ga]Ga-FAPI-RGD. After 1 h, the cells were treated in the same way. Cell lysates was collected and the radioactivity was determined using a γ counter.

[2] = type: physicochemical
Protocol: Radiolabeling of ^68Ga was performed by incubation with 50 μg FAPI-RGD in NaOAc buffer solution (pH = 4.5) at 95 ℃ for 10 min. The product was purified by C18 column extraction. The radiochemical purity and stability of [^68Ga]Ga-FAPI-RGD were determined by radio-HPLC.
FAPI-RGD and its intermediate products were characterized by TOF-MS and HPLC (Figure S1-9). The radiolabeling yield and radiochemical purity of [^68Ga]Ga-FAPI-RGD were consistently over 99%. […] The radiochemistry purity was over 99% within 4 h.

clinical [3] = details: human, in vivo, total radioactivity
Protocol: (§1) All patients underwent [^68Ga]Ga-FAPI-RGD PET/CT and 2-[^18F]FDG PET scanning using a dedicated PET/CT scanner (Biograph mCT64, Siemens Healthcare).
(§2) [^68Ga]Ga-FAPI-RGD PET/CT The CT scans were performed with a tube voltage of 120 kV, an effective tube current of 70-120 mA (Care Dose 4D), and a slice thickness of 3 mm. Serial whole-body dynamic PET scans were immediately performed after the CT scan in 3D acquisition mode (matrix: 200 × 200). The whole body (from the top of skull to the middle of femur) of each patient was covered by 6 bed positions. The acquisition duration was 30 s/bed position at 3 min after injection; 1 min/bed position at 15 min after injection; and 2 min/bed position at 30, 60, and 120 min after injection.
(§3) 2-[^18F]FDG PET/CT All patients were fast at least 6 h to keep and images were obtained at 60-80 min after the intravenous injection of 2-[^18F]FDG (3.70 MBq [0.10 mCi]/kg). 2-[^18F]FDG was purchased from Fuzhou PET-Tracer Co. Ltd, and the radiochemical purity was more than 95%.
(§4) For [^68Ga]Ga-FAPI-RGD PET/CT, only PET/CT datasets acquired approximately 1 h after injection were used for analysis.

clinical [4] = details: human, in vivo, total radioactivity; remark: listed apart in the source
Protocol: (§5) This study was approved by the institutional review board of the First Affiliated Hospital, Fujian Medical University and registered at ClinicalTrials.gov (NCT05515783). All patients signed an informed consent form before participation and all procedures were conducted in accordance with the Declaration of Helsinki. The inclusion criteria were as follows: […] (2) primary malignancies confirmed by pathology. The exclusion criteria were patients: (1) who suffered from severe hepatic and renal insufficiency; (2) pregnant or lactational women.

[5] = test system: malignant tumors and normal organs; experiment: clinical; details: human, in vivo
Protocol: as §5

[6] = human, in vivo
Protocol: Organ delineation and activity accumulation at each imaging time point was determined using Hybrid-Dosimetry software (Hermes Medical Solutions, Sweden). Time-activity curve fitting and subsequent dose calculation was performed using OLINDA/EXM, version 2.2.0. Kidneys, liver, spleen, urinary bladder content, L2-L4 lumbar vertebrae for red marrow dosimetry, heart content, lung, brain, pancreas, thyroid, salivary glands and stomach contents were included as source organs. Red bone marrow dosimetry was done by image-based 3D volumetric analysis of L2-L4 vertebrae, which is considered to constitute 6.7% of the total bone marrow. The ROIs for the above organs were drawn from the examination that had the best organ delineation and then were copied onto all other time points to calculate the time-activity curves. The mono- or bi-exponential curve fitting parameters were applied to derive the best curve fit for the residence time of activity in the source organ. Once all the organ residence times were derived from the kinetic input model, they were entered in the adult female or male model data to derive the absorbed doses to all the organs, including the whole-body effective dose, and generated in mSv/MBq and rem/mCi. The time-activity graphs of various organs were generated using GraphPad Prism software.

[7] = test system: primary tumors and metastases; experiment: Comparison of [^68Ga]Ga-FAPI-RGD and 2-[^18F]FDG PET/CT tumor uptake in patients
Protocol: as §1, §2, §3, §4

[8] = i.v. tail vein, n = 3, ROI, mean ± SD
[9] = average SUVmean of thyroid glands

Question: Which tissue uptake at 1 h (in vivo) does the source give for `N=C(N)NCCC[C@@H]1NC(=O)[C@H](CCCCNC(=O)CN2CCN(CC(=O)O)CCN(CC(=O)O)CC2)NC(=O)[C@@H](Cc2ccccc2)NC(=O)[C@H](CC(=O)O)NC(=O)CNC1=O` [[^68Ga]Ga-RGDfK, metal not drawn, reference compound] here?
Answer: Its tissue uptake at 1 h is 3.51 ± 0.47 %ID/g.

Question: What about the tissue uptake at 0.5 h [1, 8] of the same compound?
Answer: The tissue uptake at 0.5 h was 3.96 ± 0.24 %ID/g.

Question: And the tissue uptake at 1 h [1, 8]?
Answer: The tissue uptake at 1 h was 3.4 ± 0.16 %ID/g.

Question: And the tissue uptake at 2 h [1, 8]?
Answer: Its tissue uptake at 2 h is 2.89 ± 0.09 %ID/g.

Question: And the “cellular uptake compared with [^68Ga]Ga-FAPI-RGD” value (Panc02 tumor cells)?
Answer: The value was “less than [^68Ga]Ga-FAPI-RGD at all the time points”.

Question: Which results are given for `N#C[C@@H]1CCCN1C(=O)CNC(=O)c1ccnc2ccc(OCCCN3CCN(C(=O)CCOCCOCCNC(=O)[C@H](CCC(=O)NCCOCCOCCC(=O)NCCCC[C@@H]4NC(=O)[C@@H](Cc5ccccc5)NC(=O)[C@H](CC(=O)O)NC(=O)CNC(=O)[C@H](CCCNC(=N)N)NC4=O)NC(=O)CN4CCN(CC(=O)O)CCN(CC(=O)O)CC4)CC3)cc12` [[^68Ga]Ga-FAPI-RGD, metal not drawn]?
Answer: time of good stability in saline [2]: at least 4 h; tissue uptake at 0.5 h (in vivo): 6.16 ± 0.46 %ID/g; tissue uptake at 1 h (in vivo): 5.95 ± 0.43 %ID/g; tissue uptake at 2 h (in vivo): 5.78 ± 0.28 %ID/g; tissue uptake at 4 h (in vivo): 5.79 ± 0.22 %ID/g; SUV at 1 h (clinical [3]; SUVmax of metastasis): 6.5 ± 2.6 SUV; SUV at 1 h (clinical [3]; SUVmax of primary lesion, patient with renal cell carcinoma): 5.1 SUV; SUV at 1 h (clinical [3]; mean SUVmax in primary tumors): 8.9 ± 3.2 SUV; SUV at 0.05 h (clinical [4]; [9]): 7.8 SUV; SUV at 2 h (clinical [4]; [9]): 3 SUV; SUV at 0.05 h (clinical [4]; average tumor SUVmax): 7 SUV; SUV at 0.25 h (clinical [4]; average tumor SUVmax): 8 SUV; SUV at 0.5 h (clinical [4]; average tumor SUVmax): 8 SUV; SUV at 1 h (clinical [4]; average tumor SUVmax): 8.3 SUV; SUV at 2 h (clinical [4]; average tumor SUVmax): 9.1 SUV; decline of thyroid SUVmean from 3 min to 2.0 h [5]: 62.5%; main excretory organs [5]: kidneys were the main excretory organs; effective dose [6]: 1.94 mSv/100 MBq; total body effective dose for administration of 185 MBq (5.0 mCi) [6]: 3.6 mSv; Estimated absorbed dose, Adrenals ([6]; iv): 1.04E-02 mSv/MBq; Estimated absorbed dose, Brain ([6]; iv): 3.38E-03 mSv/MBq; Estimated absorbed dose, Esophagus ([6]; iv): 7.55E-03 mSv/MBq; Estimated absorbed dose, Eyes ([6]; iv): 5.47E-03 mSv/MBq; Estimated absorbed dose, Gallbladder Wall ([6]; iv): 8.35E-03 mSv/MBq; Estimated absorbed dose, Heart Wall ([6]; iv): 2.04E-02 mSv/MBq; Estimated absorbed dose, Kidneys ([6]; iv): 3.24E-02 mSv/MBq; Estimated absorbed dose, Left colon ([6]; iv): 7.80E-03 mSv/MBq; Estimated absorbed dose, Liver ([6]; iv): 1.45E-02 mSv/MBq; Estimated absorbed dose, Lungs ([6]; iv): 2.33E-02 mSv/MBq; Estimated absorbed dose, Osteogenic Cells ([6]; iv): 1.07E-02 mSv/MBq; Estimated absorbed dose, Pancreas ([6]; iv): 3.06E-02 mSv/MBq; Estimated absorbed dose, Prostate ([6]; iv): 1.24E-02 mSv/MBq; Estimated absorbed dose, Rectum ([6]; iv): 1.06E-02 mSv/MBq; Estimated absorbed dose, Red Marrow ([6]; iv): 1.45E-02 mSv/MBq; Estimated absorbed dose, Right colon ([6]; iv): 7.53E-03 mSv/MBq; Estimated absorbed dose, Salivary Glands ([6]; iv): 2.09E-02 mSv/MBq; Estimated absorbed dose, Small Intestine ([6]; iv): 8.16E-03 mSv/MBq; Estimated absorbed dose, Spleen ([6]; iv): 2.25E-02 mSv/MBq; Estimated absorbed dose, Stomach Wall ([6]; iv): 1.20E-02 mSv/MBq; Estimated absorbed dose, Testes ([6]; iv): 7.13E-03 mSv/MBq; Estimated absorbed dose, Thymus ([6]; iv): 7.41E-03 mSv/MBq; Estimated absorbed dose, Thyroid ([6]; iv): 3.31E-02 mSv/MBq; Estimated absorbed dose, Total Body ([6]; iv): 8.92E-03 mSv/MBq; Estimated absorbed dose, Urinary Bladder Wall ([6]; iv): 2.26E-01 mSv/MBq; effective dose ([6]; iv): 1.94E-02 mSv/MBq; tissue uptake at 0.5 h [1, 8]: 5.25 ± 0.54 %ID/g; tissue uptake at 1 h [1, 8]: 5.13 ± 0.65 %ID/g; tissue uptake at 2 h [1, 8]: 5.33 ± 0.27 %ID/g; tissue uptake at 4 h ([1]; i.v. tail vein, n = 3, ROI, mean ± SD, read-out: tumor uptake (microPET)): 5.04 ± 0.16 %ID/g; tissue uptake at 4 h ([1]; n = 3, read-out: blood uptake (microPET)): 1.4 ± 0.08 %ID/g; tissue uptake at 4 h ([1]; n = 3, read-out: kidney uptake (microPET)): 2.78 ± 0.46 %ID/g; tissue uptake at 4 h ([1]; n = 3, read-out: liver uptake (microPET)): 1.83 ± 0.39 %ID/g

Question: With `OC[C@H]1O[C@@H](O)[C@H]([18F])[C@@H](O)[C@@H]1O` [2-[^18F]FDG, reference compound] as the compound, how does the “mean SUVmax in primary tumors” value ([7]; 6 patients, FAPI-RGD approximately 1 h after injection, FDG 60-80 min after injection, mean ± SD, p = 0.459) read?
Answer: Its value is 10.3 ± 6.9.

Question: And the “SUVmax of primary lesion, patient with renal cell carcinoma” value ([7]; single patient, intra-individual comparison)?
Answer: The value was 2.7.

Question: And the SUVmax of metastasis ([7]; three patients with metastatic foci, mean ± SD, p = 0.373)?
Answer: The SUVmax of metastasis was 7.6 ± 5.3.
